Columns and labels:
[1] = target: Munc18-1-His (rat) (UniProt P61765)
[2] = target: Munc18-1 + Mint1 (rat | human) (UniProt P61765); assay: ITC

Kd [1] [µM]	dH [1] [kcal/mol]	stoichiometry N [1]	dH [2] [kcal/mol]	Substance
216	-57.6	1		Mint1_14 peptide (261-282 A275A/E276A)
			-29.7	Rat Sx1a (Sx1(1-261)-His) (from UniProt P32851 1-261) (domain or fragment)
